For the test, the target named is Shiga toxin 2a B-subunit (StxB2a) (E. coli (endogenous in STEC/EHEC strains TS18/08, LB226692, HUSEC003, HUSEC004, HUSEC008, HUSEC018)). In words: native gel or EMSA. In general terms: Mobility shift assays separate free from complexed probe on a gel.

The values below come from publication PMC12078605.

Values joined by “and” are separate entries in the source; they are usually repeats but may differ in a detail not shown here. Equal values may be shown once.

For orientation: stoichiometry N means the number of molecules, sites or subunits per partner or assembly. On to “Shiga toxin 2a B-subunit (StxB2a) (natural protein)”, for which the stoichiometry N was 2 and 3 and 5.
